Results from US20150299281A1 (ZEALAND PHARMA A S, published 2015).
Square brackets hold non-standard residues; d marks the D form. pGlu = O=C1CC[C@@H](C(=O)O)N1; Aib = CC(C)(N)C(=O)O

B1: Compound 6 (peptide)
peptide: [pGlu]YAEGTFTSDYSIYLDKKAQRAFVNWLLA[Aib]K-NH2
SMILES: CC[C@H](C)[C@H](NC(=O)[C@H](CO)NC(=O)[C@H](Cc1ccc(O)cc1)NC(=O)[C@H](CC(=O)O)NC(=O)[C@H](CO)NC(=O)[C@@H](NC(=O)[C@H](Cc1ccccc1)NC(=O)[C@@H](NC(=O)CNC(=O)[C@H](CCC(=O)O)NC(=O)[C@H](C)NC(=O)[C@H](Cc1ccc(O)cc1)NC(=O)[C@@H]1CCC(=O)N1)[C@@H](C)O)[C@@H](C)O)C(=O)N[C@@H](Cc1ccc(O)cc1)C(=O)N[C@@H](CC(C)C)C(=O)N[C@@H](CC(=O)O)C(=O)N[C@@H](CCCCN)C(=O)N[C@@H](CCCCN)C(=O)N[C@@H](C)C(=O)N[C@@H](CCC(N)=O)C(=O)N[C@@H](CCCNC(=N)N)C(=O)N[C@@H](C)C(=O)N[C@@H](Cc1ccccc1)C(=O)N[C@H](C(=O)N[C@@H](CC(N)=O)C(=O)N[C@@H](Cc1c[nH]c2ccccc12)C(=O)N[C@@H](CC(C)C)C(=O)N[C@@H](CC(C)C)C(=O)N[C@@H](C)C(=O)NC(C)(C)C(=O)N[C@@H](CCCCN)C(N)=O)C(C)C
B2: Compound 7 (peptide)
peptide: H-YGEGTFTSDYSIYLDKKAQRAFVNWLLA[Aib]K-NH2
SMILES: CC[C@H](C)[C@H](NC(=O)[C@H](CO)NC(=O)[C@H](Cc1ccc(O)cc1)NC(=O)[C@H](CC(=O)O)NC(=O)[C@H](CO)NC(=O)[C@@H](NC(=O)[C@H](Cc1ccccc1)NC(=O)[C@@H](NC(=O)CNC(=O)[C@H](CCC(=O)O)NC(=O)CNC(=O)[C@@H](N)Cc1ccc(O)cc1)[C@@H](C)O)[C@@H](C)O)C(=O)N[C@@H](Cc1ccc(O)cc1)C(=O)N[C@@H](CC(C)C)C(=O)N[C@@H](CC(=O)O)C(=O)N[C@@H](CCCCN)C(=O)N[C@@H](CCCCN)C(=O)N[C@@H](C)C(=O)N[C@@H](CCC(N)=O)C(=O)N[C@@H](CCCNC(=N)N)C(=O)N[C@@H](C)C(=O)N[C@@H](Cc1ccccc1)C(=O)N[C@H](C(=O)N[C@@H](CC(N)=O)C(=O)N[C@@H](Cc1c[nH]c2ccccc12)C(=O)N[C@@H](CC(C)C)C(=O)N[C@@H](CC(C)C)C(=O)N[C@@H](C)C(=O)NC(C)(C)C(=O)N[C@@H](CCCCN)C(N)=O)C(C)C
B3: Compound 8 (peptide)
peptide: H-Y[Aib]EGTFSSDYSIYLDKKAQRAFVNWLLA[Aib]K-NH2
SMILES: CC[C@H](C)[C@H](NC(=O)[C@H](CO)NC(=O)[C@H](Cc1ccc(O)cc1)NC(=O)[C@H](CC(=O)O)NC(=O)[C@H](CO)NC(=O)[C@H](CO)NC(=O)[C@H](Cc1ccccc1)NC(=O)[C@@H](NC(=O)CNC(=O)[C@H](CCC(=O)O)NC(=O)C(C)(C)NC(=O)[C@@H](N)Cc1ccc(O)cc1)[C@@H](C)O)C(=O)N[C@@H](Cc1ccc(O)cc1)C(=O)N[C@@H](CC(C)C)C(=O)N[C@@H](CC(=O)O)C(=O)N[C@@H](CCCCN)C(=O)N[C@@H](CCCCN)C(=O)N[C@@H](C)C(=O)N[C@@H](CCC(N)=O)C(=O)N[C@@H](CCCNC(=N)N)C(=O)N[C@@H](C)C(=O)N[C@@H](Cc1ccccc1)C(=O)N[C@H](C(=O)N[C@@H](CC(N)=O)C(=O)N[C@@H](Cc1c[nH]c2ccccc12)C(=O)N[C@@H](CC(C)C)C(=O)N[C@@H](CC(C)C)C(=O)N[C@@H](C)C(=O)NC(C)(C)C(=O)N[C@@H](CCCCN)C(N)=O)C(C)C
B4: Compound 11 (peptide)
peptide: H-Y[Aib]EGTFTSDYLIYLDKKAQRAFVNWLLA[Aib]K-NH2
SMILES: CC[C@H](C)[C@H](NC(=O)[C@H](CC(C)C)NC(=O)[C@H](Cc1ccc(O)cc1)NC(=O)[C@H](CC(=O)O)NC(=O)[C@H](CO)NC(=O)[C@@H](NC(=O)[C@H](Cc1ccccc1)NC(=O)[C@@H](NC(=O)CNC(=O)[C@H](CCC(=O)O)NC(=O)C(C)(C)NC(=O)[C@@H](N)Cc1ccc(O)cc1)[C@@H](C)O)[C@@H](C)O)C(=O)N[C@@H](Cc1ccc(O)cc1)C(=O)N[C@@H](CC(C)C)C(=O)N[C@@H](CC(=O)O)C(=O)N[C@@H](CCCCN)C(=O)N[C@@H](CCCCN)C(=O)N[C@@H](C)C(=O)N[C@@H](CCC(N)=O)C(=O)N[C@@H](CCCNC(=N)N)C(=O)N[C@@H](C)C(=O)N[C@@H](Cc1ccccc1)C(=O)N[C@H](C(=O)N[C@@H](CC(N)=O)C(=O)N[C@@H](Cc1c[nH]c2ccccc12)C(=O)N[C@@H](CC(C)C)C(=O)N[C@@H](CC(C)C)C(=O)N[C@@H](C)C(=O)NC(C)(C)C(=O)N[C@@H](CCCCN)C(N)=O)C(C)C
B5: Compound 12 (peptide)
peptide: H-Y[Aib]EGTFTSDYSIALDKKAQRAFVNWLLA[Aib]K-NH2
SMILES: CC[C@H](C)[C@H](NC(=O)[C@H](CO)NC(=O)[C@H](Cc1ccc(O)cc1)NC(=O)[C@H](CC(=O)O)NC(=O)[C@H](CO)NC(=O)[C@@H](NC(=O)[C@H](Cc1ccccc1)NC(=O)[C@@H](NC(=O)CNC(=O)[C@H](CCC(=O)O)NC(=O)C(C)(C)NC(=O)[C@@H](N)Cc1ccc(O)cc1)[C@@H](C)O)[C@@H](C)O)C(=O)N[C@@H](C)C(=O)N[C@@H](CC(C)C)C(=O)N[C@@H](CC(=O)O)C(=O)N[C@@H](CCCCN)C(=O)N[C@@H](CCCCN)C(=O)N[C@@H](C)C(=O)N[C@@H](CCC(N)=O)C(=O)N[C@@H](CCCNC(=N)N)C(=O)N[C@@H](C)C(=O)N[C@@H](Cc1ccccc1)C(=O)N[C@H](C(=O)N[C@@H](CC(N)=O)C(=O)N[C@@H](Cc1c[nH]c2ccccc12)C(=O)N[C@@H](CC(C)C)C(=O)N[C@@H](CC(C)C)C(=O)N[C@@H](C)C(=O)NC(C)(C)C(=O)N[C@@H](CCCCN)C(N)=O)C(C)C
B6: Compound 13 (peptide)
peptide: H-Y[Aib]EGTFTSDYSIYSDKKAQRAFVNWLLA[Aib]K-NH2
SMILES: CC[C@H](C)[C@H](NC(=O)[C@H](CO)NC(=O)[C@H](Cc1ccc(O)cc1)NC(=O)[C@H](CC(=O)O)NC(=O)[C@H](CO)NC(=O)[C@@H](NC(=O)[C@H](Cc1ccccc1)NC(=O)[C@@H](NC(=O)CNC(=O)[C@H](CCC(=O)O)NC(=O)C(C)(C)NC(=O)[C@@H](N)Cc1ccc(O)cc1)[C@@H](C)O)[C@@H](C)O)C(=O)N[C@@H](Cc1ccc(O)cc1)C(=O)N[C@@H](CO)C(=O)N[C@@H](CC(=O)O)C(=O)N[C@@H](CCCCN)C(=O)N[C@@H](CCCCN)C(=O)N[C@@H](C)C(=O)N[C@@H](CCC(N)=O)C(=O)N[C@@H](CCCNC(=N)N)C(=O)N[C@@H](C)C(=O)N[C@@H](Cc1ccccc1)C(=O)N[C@H](C(=O)N[C@@H](CC(N)=O)C(=O)N[C@@H](Cc1c[nH]c2ccccc12)C(=O)N[C@@H](CC(C)C)C(=O)N[C@@H](CC(C)C)C(=O)N[C@@H](C)C(=O)NC(C)(C)C(=O)N[C@@H](CCCCN)C(N)=O)C(C)C
B7: Compound 14 (peptide)
peptide: H-Y[Aib]EGTFTSDYSIYLEKKAQRAFVNWLLA[Aib]K-NH2
SMILES: CC[C@H](C)[C@H](NC(=O)[C@H](CO)NC(=O)[C@H](Cc1ccc(O)cc1)NC(=O)[C@H](CC(=O)O)NC(=O)[C@H](CO)NC(=O)[C@@H](NC(=O)[C@H](Cc1ccccc1)NC(=O)[C@@H](NC(=O)CNC(=O)[C@H](CCC(=O)O)NC(=O)C(C)(C)NC(=O)[C@@H](N)Cc1ccc(O)cc1)[C@@H](C)O)[C@@H](C)O)C(=O)N[C@@H](Cc1ccc(O)cc1)C(=O)N[C@@H](CC(C)C)C(=O)N[C@@H](CCC(=O)O)C(=O)N[C@@H](CCCCN)C(=O)N[C@@H](CCCCN)C(=O)N[C@@H](C)C(=O)N[C@@H](CCC(N)=O)C(=O)N[C@@H](CCCNC(=N)N)C(=O)N[C@@H](C)C(=O)N[C@@H](Cc1ccccc1)C(=O)N[C@H](C(=O)N[C@@H](CC(N)=O)C(=O)N[C@@H](Cc1c[nH]c2ccccc12)C(=O)N[C@@H](CC(C)C)C(=O)N[C@@H](CC(C)C)C(=O)N[C@@H](C)C(=O)NC(C)(C)C(=O)N[C@@H](CCCCN)C(N)=O)C(C)C
B8: Compound 15 (peptide)
peptide: H-Y[Aib]EGTFTSDYSIALEKKAQRAFVNWLLA[Aib]K-NH2
SMILES: CC[C@H](C)[C@H](NC(=O)[C@H](CO)NC(=O)[C@H](Cc1ccc(O)cc1)NC(=O)[C@H](CC(=O)O)NC(=O)[C@H](CO)NC(=O)[C@@H](NC(=O)[C@H](Cc1ccccc1)NC(=O)[C@@H](NC(=O)CNC(=O)[C@H](CCC(=O)O)NC(=O)C(C)(C)NC(=O)[C@@H](N)Cc1ccc(O)cc1)[C@@H](C)O)[C@@H](C)O)C(=O)N[C@@H](C)C(=O)N[C@@H](CC(C)C)C(=O)N[C@@H](CCC(=O)O)C(=O)N[C@@H](CCCCN)C(=O)N[C@@H](CCCCN)C(=O)N[C@@H](C)C(=O)N[C@@H](CCC(N)=O)C(=O)N[C@@H](CCCNC(=N)N)C(=O)N[C@@H](C)C(=O)N[C@@H](Cc1ccccc1)C(=O)N[C@H](C(=O)N[C@@H](CC(N)=O)C(=O)N[C@@H](Cc1c[nH]c2ccccc12)C(=O)N[C@@H](CC(C)C)C(=O)N[C@@H](CC(C)C)C(=O)N[C@@H](C)C(=O)NC(C)(C)C(=O)N[C@@H](CCCCN)C(N)=O)C(C)C

molecular target: T1, human GIP receptor (human, UniProt P48546 22-466); test: cell-based or functional assay
T1 sequence (looked up): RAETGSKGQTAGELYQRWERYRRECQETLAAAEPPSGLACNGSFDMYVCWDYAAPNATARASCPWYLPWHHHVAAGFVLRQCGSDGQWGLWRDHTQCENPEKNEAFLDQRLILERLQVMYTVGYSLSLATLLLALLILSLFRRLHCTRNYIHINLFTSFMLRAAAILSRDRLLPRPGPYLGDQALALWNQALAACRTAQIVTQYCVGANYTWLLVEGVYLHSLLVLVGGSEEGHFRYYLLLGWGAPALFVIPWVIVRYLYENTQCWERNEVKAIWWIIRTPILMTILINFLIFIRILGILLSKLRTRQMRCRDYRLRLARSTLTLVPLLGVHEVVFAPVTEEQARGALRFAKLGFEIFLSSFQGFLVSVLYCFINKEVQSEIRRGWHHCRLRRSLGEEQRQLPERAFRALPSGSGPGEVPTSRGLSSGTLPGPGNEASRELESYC

Point of comparison: B7, “EC50, cAMP induction in HEK293 cells expressing human GIP R” value 36 pM. Against it:
- B1 — 7.5-fold higher, 270 pM
- B2 — 5.8-fold higher, 210 pM
- B3 — 2.8-fold higher, 100 pM
- B4 — 21-fold higher, 760 pM
- B5 — within 1.5-fold, 50 pM
- B6 — 3.9-fold higher, 140 pM
- B8 — 1.7-fold higher, 60 pM

molecular target: human GLP-1 receptor (human, UniProt P43220 24-463); test: cell-based or functional assay

Point of comparison: B2, “EC50, cAMP induction in HEK293 cells expressing human GLP-1 R” value 24 pM. Against it:
- B1 — 40-fold higher, 970 pM
- B3 — within 1.5-fold, 29 pM
- B4 — 20-fold higher, 470 pM
- B5 — 2.4-fold lower, 10 pM
- B6 — within 1.5-fold, 32 pM
- B7 — 2.8-fold lower, 8.7 pM
- B8 — 2.4-fold lower, 10 pM
